Source: publication PMC6940849, “Structure-Based Redesign of a Self-Sufficient Flavin-Containing Monooxygenase towards Indigo Production” (International Journal of Molecular Sciences, 2019)
Positions count from the first letter of the chain named. Numbers in names are those of the source.

B1: *mFMO (PTDH-*mFMO; mFMO M15L/S23A) (Methylophaga thalassica; M15L/S23A/W319A) (protein)
chain: MATRIAILGAGPSGLAQLRAFQAAQEKGAEIPELVCFEKQADWGGQWNYTWRTGLDENGEPVHSSMYRYLWSNGPKECLEFADYTFDEHFGKPIASYPPREVLWDYIKGRVEKAGVRKYIRFNTAVRHVEFNEDSQTFTVTVQDHTTDTIYSEEFDYVVCCTGHFSTPYVPEFEGFEKFGGRILHAHDFRDALEFKDKTVLLVGSSYSAEDIGSQCYKYGAKKLISCYRTAPMGYKWPENWDERPNLVRVDTENAYFADGSSEKVDAIILCTGYIHHFPFLNDDLRLVTNNRLWPLNLYKGVVWEDNPKFFYIGMQDQAYSFNMFDAQAWYARDVIMGRLPLPSKEEMKADSMAWREKELTLVTAEEMYTYQGDYIQNLIDMTDYPSFDIPATNKTFLEWKHHKKENIMTFRDHSYRSLMTGTMAPKHHTPWIDALDDSLEAYLSDKSEIPVAKEA
notes: N-terminal fusion to phosphite dehydrogenase (PTDH, cofactor regeneration; pCRE3-mFMO), Ni-Sepharose purified from E. coli NEB10beta
B2: *mFMO (PTDH-*mFMO; mFMO M15L/S23A) (Methylophaga thalassica; C78A/M15L/S23A) (protein)
chain: B1 chain with C78A, A319W
notes: as for B1
B3: *mFMO (PTDH-*mFMO; mFMO M15L/S23A) (Methylophaga thalassica; C78V/M15L/S23A) (protein)
chain: B1 chain with C78V, A319W
notes: as for B1
B4: *mFMO (PTDH-*mFMO; mFMO M15L/S23A) (Methylophaga thalassica; C78I/M15L/S23A/W319A/Y207W) (protein)
chain: B1 chain with C78I, Y207W
notes: as for B1
B5: *mFMO (PTDH-*mFMO; mFMO M15L/S23A) (Methylophaga thalassica; C78L/M15L/S23A) (protein)
chain: B1 chain with C78L, A319W
notes: as for B1
B6: *mFMO (PTDH-*mFMO; mFMO M15L/S23A) (Methylophaga thalassica; C78I/M15L/S23A) (protein)
chain: B1 chain with C78I, A319W
notes: as for B1
B7: *mFMO (PTDH-*mFMO; mFMO M15L/S23A) (Methylophaga thalassica; M15L/S23A/Y207W) (protein)
chain: B1 chain with Y207W, A319W
notes: as for B1
B8: *mFMO (PTDH-*mFMO; mFMO M15L/S23A) (Methylophaga thalassica; M15L/S23A/W319F) (protein)
chain: B1 chain with A319F
notes: as for B1
B9: *mFMO (PTDH-*mFMO; mFMO M15L/S23A) (Methylophaga thalassica; M15L/S23A/W319A/Y207W) (protein)
chain: B1 chain with Y207W
notes: as for B1
B10: *mFMO (PTDH-*mFMO; mFMO M15L/S23A) (Methylophaga thalassica; M15L/S23A) (protein)
chain: B1 chain with A319W
notes: as for B1

The proteins below were run on c1ccc2[nH]ccc2c1 (assay: purified protein). Conditions: NADPH; indole up to 1.6 mM.
Type: biochemical, Methylophaga thalassica

| Protein | Km [µM] | kcat [s⁻¹] |
| --- | --- | --- |
| B1 | 900 | 0.42 |
| B2 | 400 | 0.79 |
| B3 | 700 | 1.04 |
| B4 | 800 | 0.93 |
| B5 | 800 | 0.7 |
| B6 | 800 | 1.28 |
| B7 | 100 | 0.31 |
| B8 | 400 | 0.64 |
| B9 | 800 | 0.8 |

Same assay, conditions: NADPH; indole up to 1.6 mM; listed as printed as WT, table title says *mFMO

| Protein | Km [µM] | kcat [s⁻¹] |
| --- | --- | --- |
| B10 | 400 | 0.85 |
